In article PMC7881195:

What was measured:
[1] = molecular target: C. elegans PGL-1 N-terminal dimerization domain (NtDD), wild-type (C. elegans); assay: SEC-MALS; C. elegans PGL-1 NtDD wild-type and mutants injected at 1 mg/ml in HNT buffer (20 mM HEPES pH 7.4, 100 mM NaCl, 0.5 mM TCEP) on a SEC 650 sizing column, 0.4 ml/min
[2] = molecular target: C. elegans PGL-3 N-terminal dimerization domain (NtDD), wild-type (C. elegans); assay: SEC-MALS; C. elegans PGL-3 NtDD wild-type and mutant, 500 µl at 1 mg/ml in HNT buffer (20 mM HEPES pH 7.5, 100 mM NaCl, 0.5 mM TCEP) on Superdex 75 10/300 GL, 0.5 ml/min, 20 °C

Row | Substance | stoichiometry N [1] | stoichiometry N [2]
1 | C. elegans PGL-1 N-terminal dimerization domain (NtDD), wild-type (domain or fragment) | 2 | 
2 | C. elegans PGL-3 N-terminal dimerization domain (NtDD), wild-type (domain or fragment) |  | 2
